According to publication PMC7334433, “Enzymatic characterization and structure-function relationship of two chitinases, LmChiA and LmChiB, from Listeria monocytogenes” (Heliyon, 2020):

Test system: CC(=O)N[C@H]1[C@H](Oc2ccc([N+](=O)[O-])cc2)O[C@H](CO)[C@@H](O[C@@H]2O[C@H](CO)[C@@H](O)[C@H](O)[C@H]2NC(C)=O)[C@@H]1O
Assay: purified protein
Conditions: 20 mM sodium phosphate pH 7.4, 37 °C (standard assay), substrate 0.05–0.45 mM

| Substance | Km | kcat | kcat/Km |
| --- | --- | --- | --- |
| LmChiA (Listeria monocytogenes EGD-e) | 1622 ± 13 µM | 33.6 ± 1 s⁻¹ | 20000 M⁻¹ s⁻¹ |
| LmChiB (Listeria monocytogenes EGD-e) | 375 ± 27 µM | 72.1 ± 1.4 s⁻¹ | 190000 M⁻¹ s⁻¹ |
